This is an account of results in patent US20250002583A1 (PERSONGEN BIOTHERAPEUTICS SUZHOU, published 2025).

For orientation: Kd means the concentration at which binding is half-saturated. By koff is commonly meant the rate constant with which the complex falls apart. By kon is commonly meant the second-order rate constant of association.

B1: CD276 Chimeric (antibody, V domains shown)
VH: EVTLVESGGGLVKPGGSLKLSCAASGFTFSTYVMSWVRQTPEKRLEWVASILSGGTSFYADNVKGRFTISRENARNILYLQMSSLKSEDTAMYYCVRRYGHDHYYAMDYWGQGTSVTVSS
VL: QIVLTQSPANMSASLGERVTMTCAASSSVSSSYLHWYQQKPGSSPKLWIYSTSNLASGVPGRFNGSGSGTSYSLTISSMEAEDAATYYCHQYHRSPWTFGGGTKLEIK
notes: Murine variable regions cloned into pcDNA3.1-IgG1Fc (heavy) and pcDNA3.1-IgKc (light); also called human-mouse chimeric antibody; human-murine chimeric antibody
B2: CD276T1H1-T1L1 (antibody, V domains shown)
VH: EVQLVESGGGLIQPGGSLRLSCAASGFTFSTYVMSWVRQAPGKGLEWVSSILSGGTSFYADNVKGRFTISRDNSKNTLYLQMNSLRAEDTAVYYCARRYGHDHYYAMDYWGQGTLVTVSS
VL: EIVLTQSPATLSLSPGERATLSCAASSSVSSSYLHWYQQKPGLAPRLLIYSTSNLASGIPDRFSGSGSGTDFTLTISRLEPEDFAVYYCQQYHRSPWTFGGGTKVEIK
notes: Heavy chain variable region cloned into pcDNA3.1-IgG1Fc and light chain variable region into pcDNA3.1-IgKc (IgG1, kappa); also called humanized CD276 antibody (CD276T1H1-T1L1); CD276 humanized antibody
B3: CD276T2H1-T2L1 (antibody, V domains shown)
VH: EVQLVESGGGVVRPGGSLRLSCAASGFTFSTYVMSWVRQAPGKGLEWVSSILSGGTSFYADNVKGRFTISRDNAKNSLYLQMNSLRAEDTALYHCARRYGHDHYYAMDYWGQGTTVTVSS
VL: DIQMTQSPSTLSASVGDRVTITCAASSSVSSSYLHWYQQKPGKAPKLLIYSTSNLASGVPSRFSGSGSGTEFTLTISSLQPDDFATYYCQQYHRSPWTFGQGTKLEIK
notes: Heavy chain variable region cloned into pcDNA3.1-IgG1Fc and light chain variable region into pcDNA3.1-IgKc (IgG1, kappa)

This assay deals with T1, B7-H3 (CD276) Protein, Human, Recombinant (His Tag) (Human, UniProt Q5ZPR3 29-461, limits assumed).
T1 construct: Bought protein; also called CD276-His recombinant protein; CD276 recombinant protein; not shown: His tag
T1 sequence (looked up): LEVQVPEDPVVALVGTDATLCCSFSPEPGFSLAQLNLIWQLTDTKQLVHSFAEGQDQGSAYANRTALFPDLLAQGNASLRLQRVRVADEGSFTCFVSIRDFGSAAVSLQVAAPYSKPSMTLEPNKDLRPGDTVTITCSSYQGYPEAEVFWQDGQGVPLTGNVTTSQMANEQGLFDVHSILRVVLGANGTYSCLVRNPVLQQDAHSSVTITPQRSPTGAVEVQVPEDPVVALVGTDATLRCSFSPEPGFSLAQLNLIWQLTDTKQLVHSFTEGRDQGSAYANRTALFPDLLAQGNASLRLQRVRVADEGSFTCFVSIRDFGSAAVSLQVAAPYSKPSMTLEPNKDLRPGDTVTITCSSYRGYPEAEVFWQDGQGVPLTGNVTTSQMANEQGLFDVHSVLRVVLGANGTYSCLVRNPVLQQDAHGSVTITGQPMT
As to the kind of experiment: SPR (BiaCore T200), CD276 recombinant protein amine-coupled on CM5 chip, antibody as analyte.
B1: the Kd came out at 0.0708 µM, the koff was 0.00258 s⁻¹ and the kon amounted to 36400 M⁻¹ s⁻¹.

As for B2, the Kd amounted to 0.114 µM, the koff was 0.00282 s⁻¹ and the kon came to 24800 M⁻¹ s⁻¹.

Regarding B3, the Kd came out at 0.0728 µM, the koff stood at 0.00289 s⁻¹ and the kon was found to be 39700 M⁻¹ s⁻¹.
